According to article PMC2940738:

Target: T1, ETS-4 (Caenorhabditis elegans) (UniProt A8WFJ9)
T1 sequence: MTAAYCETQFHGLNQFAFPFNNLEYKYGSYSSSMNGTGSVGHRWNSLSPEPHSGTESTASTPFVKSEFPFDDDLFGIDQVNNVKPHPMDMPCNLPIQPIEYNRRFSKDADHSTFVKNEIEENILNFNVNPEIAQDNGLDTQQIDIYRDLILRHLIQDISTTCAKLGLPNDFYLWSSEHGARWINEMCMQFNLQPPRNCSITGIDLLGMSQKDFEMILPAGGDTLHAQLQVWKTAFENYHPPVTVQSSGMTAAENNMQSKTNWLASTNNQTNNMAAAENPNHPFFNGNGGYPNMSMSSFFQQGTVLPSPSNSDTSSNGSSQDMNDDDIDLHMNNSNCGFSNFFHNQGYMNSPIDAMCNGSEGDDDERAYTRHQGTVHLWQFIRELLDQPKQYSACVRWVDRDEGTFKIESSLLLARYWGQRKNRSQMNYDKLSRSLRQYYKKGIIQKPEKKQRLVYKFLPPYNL
Assay: EMSA
Conditions: 25 mM Tris-Cl pH 7.9, 10% glycerol, 0.1 mM EDTA, 60 mM KCl, 6 mM MgCl2, 0.2 mg/ml BSA, 10 mM DTT, 50 ng poly[d(I-C)] in 20 ul, 1 h at 4 C; 6% native PAGE at …

## TCGACGGCCAAGCCGGAAGTGAGTGCC (double strand) [ETS Site-WT (GGAA)]
  Kd: 1 nM

## TCGACGGCCAAGCCGGATGTGAGTGCC (double strand) [ETS Site-WT (GGAT)]
  Kd: 1 nM
